Reference: US7618787B2, “Method of screening compound capable of accelerating or inhibiting apoptosis, apoptosis accelarator and apoptosis inhibitor” (Hisamitsu Pharmaceutical Co., Inc., priority 2004, dated 2009)

Tests used:
p73 [1] = biological target: T1, p73 (Homo sapiens, UniProt O15350); assay: p73 protein level (stabilization) by immunoblot in cotransfected COS7 cells; format: cell-based; settings: COS7 cotransfection (FIG. 14, 15, 29)
T1 construct: expressed in transfected cells; host or cells: COS7
T1 sequence (O15350 1-636): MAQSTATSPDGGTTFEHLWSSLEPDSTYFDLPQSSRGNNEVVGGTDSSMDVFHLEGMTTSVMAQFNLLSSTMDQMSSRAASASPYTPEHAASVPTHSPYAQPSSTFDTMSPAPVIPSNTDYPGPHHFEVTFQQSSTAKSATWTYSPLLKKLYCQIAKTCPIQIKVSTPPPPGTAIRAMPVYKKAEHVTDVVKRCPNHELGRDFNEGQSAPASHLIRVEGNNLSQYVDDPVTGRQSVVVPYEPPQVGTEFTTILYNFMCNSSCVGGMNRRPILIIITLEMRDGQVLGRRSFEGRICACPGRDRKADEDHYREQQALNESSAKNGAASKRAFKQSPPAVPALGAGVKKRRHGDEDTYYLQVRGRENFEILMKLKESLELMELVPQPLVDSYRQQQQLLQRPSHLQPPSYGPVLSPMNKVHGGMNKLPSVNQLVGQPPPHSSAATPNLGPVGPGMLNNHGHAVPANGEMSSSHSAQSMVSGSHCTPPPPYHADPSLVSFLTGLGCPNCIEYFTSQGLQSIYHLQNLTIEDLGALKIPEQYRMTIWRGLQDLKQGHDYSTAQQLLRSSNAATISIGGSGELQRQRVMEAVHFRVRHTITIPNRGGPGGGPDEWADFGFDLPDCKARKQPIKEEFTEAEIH
Protocol: Cells were transiently transfected with a total of 2 μg of expression plasmids. After 48 hours of the transfection, the cells were washed with ice-cold PBS and suspended in lysis buffer (pH 8.0; which contained 25 mM Tris-Cl, 137 mM sodium chloride, 1% Triton X-100, 1 mM phenylmethylsulfonyl fluoride (PMSF), and protease inhibitor mix (Roche Molecular Biochemicals)), followed by brief sonication. After centrifugation at 15000 rpm for 10 minutes, the supernatant was collected and assayed for protein concentrations by the Bradford assay (Bio-Rad). Equal amounts of lysates (protein amount: 50 μg) from the whole cells were denatured by boiling in Laemmli SDS-sample buffer, then separated on 10% SDS-polyacrylamide gel (SDS-PAGE), and transferred at room temperature for 1 hour to polyvinylidene difluoride (PVDF) membranes (Immobilon-P; Millipore) in Tris-glycine buffer containing 10% methanol. The membranes were blocked at room temperature for 1 hour with Tris-buffered saline (TBS-T) containing 5% skim milk and 0.1% Tween 20.
As previously reported, some protein kinases (e.g., c-Abl and PKCδ) that interact with p73 can stabilize p73. To confirm whether IKK-α influenced the stabilization of p73, COS7 cells were transfected with a constant amount of HA-p73α expression plasmid together with or without varying amounts of IKK-α expression plasmids and examined for HA-p73α protein levels. […] Next, whether IKK-β influenced the stabilization of p73 and p53 was investigated by transient transfection.

endogenous p53 = assay: Amount of endogenous p53 in cisplatin-treated U2OS cells (immunoblot); format: cell-based, human; settings: cisplatin 24 hours (FIG. 30)
U2OS or H1299 cells = assay: Apoptosis induced by cisplatin in transfected cells; format: cell-based, human; settings: U2OS and H1299 (FIGS. 31 and 33)
p73 [2] = biological target: T1, p73; assay: Co-immunoprecipitation with p73 in transfected COS7 cells; format: binding; settings: COS7, co-immunoprecipitation (FIG. 10, FIG. 28)
Protocol: Whole cell lysates were centrifuged at 15000 rpm for 15 minutes to remove cell debris. The obtained supernatant was pretreated at 4° C. for 30 minutes with protein G-Sepharose (50% slurry, 30 μL; Amersham Pharmacia Biotech). After centrifugation, the supernatant was incubated at 4° C. for 2 hours with an anti-HA polyclonal (Medical and Biological Laboratories) or anti-FLAG monoclonal antibody. The immunocomplexes were precipitated at 4° C. for 30 minutes with protein G-Sepharose beads. After collection by brief centrifugation, the immunoprecipitates were washed three times with lysis buffer, then suspended in 30 μL of 2×Laemmli SDS sample buffer, and treated at 100° C. for 5 minutes. The supernatant was loaded onto 10% SDS-PAGE and analyzed by immunoblot as described above.
To investigate whether IKK-α interacted with p73 in cultured mammal cells, whole cell lysates were prepared from transfected COS7 cells, then immunoprecipitated with an anti-FLAG or anti-HA antibody, and analyzed by immunoblot using an anti-p73 or anti-FLAG antibody, respectively. […] Likewise, HA-p73β was co-immunoprecipitated with FLAG-IKK-α (data not shown). […] To identify determinants of p73 participating in the interaction with IKK-α, several deletion mutants of p73 fused to GST were prepared and examined for their abilities to bind to FLAG-IKK-α by in-vitro pull-down assay. These mutants were designed on the basis of the functional domains of p73 including transactivation, DNA-binding, oligomerization, and SAM domains (FIG. 12).

p53 = assay: Amount of endogenous p53 in COS7 cells (immunoblot); format: cell-based, African green monkey; settings: COS7, cisplatin 20 μg/mL for 24 hours (FIG. 35)
Protocol: To examine the influence of UFD2a on endogenous p73, the following experiment was performed. COS7 cells were transfected or untransfected with a FLAG-UFD2a expression plasmid. After 24 hours of the transfection, the cells were exposed to cisplatin (final concentration: 20 μg/mL) for 24 hours or left untreated. Whole cell lysates were prepared from the transfected cells and analyzed for p73α, p53, and UFD2a expression by immunoblot. Actin was utilized as a control for addition.

H1299 cells [3] = assay: p53-dependent apoptosis (DAPI staining, abnormal nuclei); format: cell-based, human; settings: H1299, cotransfection with p53, 48 hours (FIG. 36)
Protocol: (§1) To examine the influence of UFD2a on p73-dependent apoptosis, the following experiment was performed. p53-deficient H1299 cells were transiently cotransfected with the given combinations (HA-p73α, p53, and FLAG-UFD2a) of expression plasmids. After 48 hours of the transfection, the cells were fixed at room temperature for 30 minutes in 3.7% formaldehyde, then permeabilized at room temperature for 5 minutes with 0.2% Triton X-100, and blocked for 1 hour with 3% BSA. The cells were washed three times with 1×PBS and stained at room temperature for 20 minutes with DAPI (4′,6-diamidino-2-phenylindole; 1 μg/mL). Of the cells transfected with GFP, cells having abnormal nuclei were counted under a microscope.

H1299 cells [4] = assay: p73-dependent apoptosis (DAPI staining, abnormal nuclei); format: cell-based, human; settings: H1299, cotransfection with HA-p73α, 48 hours (FIG. 36)
Protocol: as §1

| Molecule | amount of HA-p73α (p73 [1]) | amount of endogenous p53 (endogenous p53) | apoptosis induced by cisplatin (U2OS or H1299 cells) | complex formation with HA-p73α (p73 [2]) | amount of endogenous p53 (p53) | p53-dependent apoptosis (H1299 cells [3]) | number of apoptotic cells, p73-dependent (H1299 cells [4]) |
| --- | --- | --- | --- | --- | --- | --- | --- |
| IKK-α (K44A): IKK-α with 44th lysine substituted by alanine, SEQ ID NO: 25, lacking kinase activity; apoptosis inhibitor (protein, IKK-alpha(K44A)) MERPPGLRPGAGGPWEMRERLGTGGFGNVCLYQHRELDLKIAIASCRLELSTKNRERWCHEIQIMKKLNHANVVKACDVPEELNILIHDVPLLAMEYCSGGDLRKLLNKPENCCGLKESQILSLLSDIGSGIRYLHENKIIHRDLKPENIVLQDVGGKIIHKIIDLGYAKDVDQGSLCTSFVGTLQYLAPELFENKPYTATVDYWSFGTMVFECIAGYRPFLHHLQPFTWHEKIKKKDPKCIFACEEMSGEVRFSSHLPQPNSLCSLIVEPMENWLQLMLNWDPQQRGGPVDLTLKQPRCFVLMDHILNLKIVHILNMTSAKIISFLLPPDESLHSLQSRIERETGINTGSQELLSETGISLDPRKPASQCVLDGVRGCDSYMVYLFDKSKTVYEGPFASRSLSDCVNYIVQDSKIQLPIIQLRKVWAEAVHYVSGLKEDYSRLFQGQRAAMLSLLRYNANLTKMKNTLISASQQLKAKLEFFHKSIQLDLERYSEQMTYGISSEKMLKAWKEMEEKAIHYAEVGVIGYLEDQIMSLHAEIMELQKSPYGRRQGDLMESLEQRAIDLYKQLKHRPSDHSYSDSTEMVKIIVHTVQSQDRVLKELFGHLSKLLGCKQKIIDLLPKVEVALSNIKEADNTVMFMQGKRQKEIWHLLKIACTQSSARSLVGSSLEGAVTPQTSAWLPPTSAEHDHSLSCVVTPQDGETSAQMIEENLNCLGHLSTIIHEANEEQGNSMMNLDWSWLTE | almost no effect on the intracellular level of exogenously expressed HA-p73α | no remarkable effect on the amount of endogenous p53 | remarkably inhibited | maintained the ability to form complexes with p73α | – | – | – |
| UFD2a: UFD2a protein, SEQ ID NO: 26, U-box ubiquitin protein ligase; apoptosis inhibitor (protein, listed as Homo sapiens) MEELSADEIRRRRLARLAGGQTSQPTTPLTSPQRENPPGPPIAASAPGPSQSLGLNVHNMTPATSPIGASGVAHRSQSSEGVSSLSSSPSNSLETQSQSLSRSQSMDIDGVSCEKSMSQVDVDSGIENMEVDENDRREKRSLSDKEPSSGPEVSEEQALQLVCKIFRVSWKDRDRDVIFLSSLSAQFKQNPKEVFSDFKDLIGQILMEVLMMSTQTRDENPFASLTATSQPIAAAARSPDRNLLLNTGSNPGTSPMFCSVASFGASSLSSLGASGGASNWDSYSDHFTIETCKETDMLNYLIECFDRVGIEEKKAPKMCSQPAVSQLLSNIRSQCISHTALVLQGSLTQPRSLQQPSFLVPYMLCRNLPYGFIQELVRTTHQDEEVFKQIFIPILQGLALAAKECSLDSDYFKYPLMALGELCETKFGKTHPVCNLVASLRLWLPKSLSPGCGRELQRLSYLGAFFSFSVFAEDDVKVVEKYFSGPAITLENTRVVSQSLQHYLELGRQELFKILHSILLNGETREAALSYMAAVVNANMKKAQMQTDDRLVSTDGFMLNFLWVLQQLSTKIKLETVDPTYIFHPRCRITLPNDETRVNATMEDVNDWLTELYGDQPPFSEPKFPTECFFLTLHAHHLSILPSCRRYIRRLRAIRELNRTVEDLKNNESQWKDSPLATRHREMLKRCKTQLKKLVRCKACADAGLLDESFLRRCLNFYGLLIQLLLRILDPAYPDITLPLNSDVPKVFAALPEFYVEDVAEFLFFIVQYSPQALYEPCTQDIVMFLVVMLCNQNYIRNPYLVAKLVEVMFMTNPAVQPRTQKFFEMIENHPLSTKLLVPSLMKFYTDVEHTGATSEFYDKFTIRYHISTIFKSLWQNIAHHGTFMEEFNSGKQFVRYINMLINDTTFLLDESLESLKRIHEVQEEMKNKEQWDQLPRDQQQARQSQLAQDERVSRSYLALATETVDMFHILTKQVQKPFLRPELGPRLAAMLNFNLQQLCGPKCRDLKVENPEKYGFEPKKLLDQLTDIYLQLDCARFAKAIADDQRSYSKELFEEVISKMRKAGIKSTIAIEKFKLLAEKVEEIVAKNARAEIDYSDAPDEFRDPLMDTLMTDPVRLPSGTIMDRSIILRHLLNSPTDPFNRQTLTESMLEPVPELKEQIQAWMREKQNSDH | – | – | – | – | no influence on the amount of endogenous p53 | could not suppress p53-dependent apoptosis | decreased the number of apoptotic cells |
